Experiment: yeast display, Sf9 membrane polyspecificity reagent, FACS + sequencing; frameworks hold sequencing errors
Procedure, shortened: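 Sorting gates, low and high (top ~1%), were placed on anti-HA fluorescence to track expression and on streptavidin fluorescence to track reagent binding. A clone's polyreactivity label is taken from the gate it came out of. The reagent was 10% biotinylated, detergent-solubilized Sf9 membrane, applied for 1 hour at 4 °C to galactose-induced yeast display cells.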

| Sequence | polyreactivity (PSR sort gate) |
| --- | --- |
| QVQLVESGGGLVQAGGSLRLSCAASGFTFTWYAMGWYRQAPGKERELVATISRSGGRTYYADSVKGRFTISRDNAKNPVYLQMNSLKPEVTAVYYCAADTRNYPRYDYWGQGTQVTVSS | high polyreactivity |
| QVQLVESGGCLVQAGGSLRLSCAASGSIGTYVMGWYRQAPGKQRELVAAITSNGGRKYYADSVKGRFTISRDNAKNTVYLQMNSLKPEDTAVYYCATVNYSPRYTMYYWGQGTQVTVSS | high polyreactivity |
| QVQLVESGGGLVQAGGSLRLICAASGTFVTYMGWYRQAPGKERELVAAIRNGGSTNYADSVKGRFTISRDNAKNTVYLQMNSLKPEDTAVYYCAARVTYSRGYRGGSRTKYDYWGQGTQVTVSS | low polyreactivity |
| QVQLVESGGGLDQAGGSLRLSCAASGSIIGIYAMGWYRQAPGKERELVAAISWSGGSTYYADSVKGRFTISRDNAKNTVYLQMNSLKPEDTAVYYCAARGHYQYYWGQGTQVTVSS | low polyreactivity |
| QVQLVESGGGLVQAGGTLRLSCDASGFIFPGYAKGWSRNATGKQREFVAAISRSGGSTYYADSVKGRFTISRDNAKNTVYLQMNSLKPEDTAVYYCATRARGYTGYDYWGQGTQVTVSS | high polyreactivity |
| QVQLVESGGGLVQAGGSLRLSCAASGFTFAPNAMGWYRQAPGKERELVAAISSASSTYYADSVKGRFTISRDNAKNTVYLQMNSLKPEETAVYYCAAKSSTKQRKYYWGQGTQVTVSS | high polyreactivity |
| QVQLVESGGGLVQAGGSLRLSCAASGSTFYRNARAWYRQAPGKERELVAGISYGGGSTYYADSVKGRFTISRDNAKNTVYLQMNSLKPEDTAVYYCNAVWVKRHYYYWGQGSQVTVSS | low polyreactivity |
| QVQLVESGGGLVQAGGSLRLSCAASGSIFVFYARGWSRQAPGKERELVAAITSGGRTYYADSVKGRFTISRDNAKNTVYLQMNSLKPEDTAVYYCNAVRFYSIGLGQDDYWGQGTQVTVSS | low polyreactivity |
| QVQLGESGGGLVQAGGSLRLSCAASGRTFGYNAIGWYRQAPGKEMELVAVIRSGGSTYYADSVKGRFTISRDNAKNTVYLQMNSLKPEDTAVYYCNADVLPTWYSPELDYWGQGTQVTVSS | low polyreactivity |
| QVQLVESGGGLVQAGGSLRLSCAASGRILSANAMGWYRQAPGKERELVAAITYSGDNTYYADSVKGRFTISRDNAKNTVYLQMNSLKPEDTAVYYCAREFQVDGGEEDYWGQGTQVTVSS | low polyreactivity |
| QVQLVESGGGLVQAGGSLRLRFAASGSIFVRNALGWYRQAPGKERELVAAITYSGSRTYSADSVKGRFTISRDNAKNTVYLQMNSLKPEETAVYYCAKVRVLVDKWSTFYEYYYWGQGTQVTVSS | low polyreactivity |
| QVQLVESGGGLVQAGGSLRLSCAASGLTFRDNAMGWYRQAPGTERELVATMNSGGSTDYADSVKGRFTISRHNAKNTVYLQMNSLKPEDTAVYYCAVYREYYDRGWYSIFYWYDYWGQGTQVTVSS | low polyreactivity |
| QVQLVESGGGLVQAGGSLRLSCAASGNTFWRYTMGWYRQAPGKERELVAAISSSGGSTYYADSVKGRFTISRDNAKNTVYLQMNSLKPEDTAVYYCAADSGSSRSRRGYEYWGQGTQVTVSS | high polyreactivity |
| QVQLVESGGGLVHAGGSLRLSCAASGRIFTWNAMGWYRQAPGKERELVARISSGTRTNYADSVKGRFTISRDNAKNTVYLQMNSLKPEDTAVYYCAAGYYYGYPPRDYWGQGTQVTVSS | high polyreactivity |
| QVQLVESGGGLVQAGASLRLSCAASGSTFYVNAMGWYRQAPGKERELVASISSSSGSTYYADSVKRRFTISRDNAKNTVYFQMNSLKPEDTAVYYCAAEVGIFIWFDYWGQGTQVTVSS | low polyreactivity |
| QVQLVESGGGLVQAGGSLRLSCAASGLTFKRYGMGWYIQAPGKERELVAAINWRGTSTYYADSVKGRFTISRDNAKNTVYLQMNSLKPEDTAVYYCAAVGPFYGPGEYWGQGTQVTVSS | high polyreactivity |
| QVQLVESGGGLVQAGGSLRLSCAASGSTFPWYTMGWYRQAPGKERELVAAISFSGGRTYYADSVKGRFTISRDNAKNTVYLQMNSLKPEDTAVYYCAATVGAASRYYYWGQGTQVTVSS | high polyreactivity |
| QVQLVESGGGLVEAGGSLRISCAASGFIFGPYAMGWYRQAPGKERELVAASWRGGSTYYADSVKGRFTISRDNAKNTVYLQMNSLKPEDTAVYYCAADVIYSLYYYWGQGTQVTVSS | low polyreactivity |
| QVQLVESGGGLVQAGGSLRLSCAASGSIFKPYAMGWYRQAPGKERELVARISWSTGRTYYADSVKGRFTISRDNAKNTVYLQMNSLKPEDTEVYDCDAAVAVRYGYWGQGTQVTVSS | high polyreactivity |
| PVQLVESGGRLVQEGGSLRLICAASARIFPYYSMGWSRPAPGKERELVAAITTSGCRTYYADSVKGRFTISRDNAKYSVYLLMNSMKPEYTAVYVCNKYARGYDMDYWGQGTQVTVSS | high polyreactivity |
| QVQLVESGGGLVQAGGSIRLSCAASGSTFYAYAMGWYRQAPGKERELVAAIDTGGSTYYADSVKGRFTISRDNAKNTVYLQMNSLKPEDTAVYYCNAVVDTTEYPYEYDYWGQGTQVTVSS | low polyreactivity |
| QVQLVESGGCLVQAGGSLRLSCAPSGYTFGRNAMGWYRQAPGKEWELVATISQRGGSTYYADSVKGRFTISRDNAKNTVYLQLNSLKPEDTAVYYCSAGPIYRYRRYYYWGQGTQVTVSS | high polyreactivity |

| Sequence | polyreactivity (PSR sort gate) |
| --- | --- |
| QVQIVESGGGLVQAGGSLRLSCAASGSIFRYNAMGWYRQARGKERELVAAITSGDSTYYADSVKGRFTISRDNAKNTVYLQMNSLKPEDTAVYYCAVTTWANTQWEEYWGHGTQVTVSS | low polyreactivity |
| QVQLVESGGGLVQAGGSLRLSCAASGRIFATNAMGWYRPAPGKERELVATITRSAGRTYYADSVKGRFTISRDNAKNTVYLQMNSLKPEDTAVYYCAASYWDTEPGYREYDYWGQGTQVTVSS | low polyreactivity |
| QVQLVESGGGLVQAGGSLRLSCAASGSIFTFYAMGWYRQAPGKERELVARITNVGNTNYADSVKGRFTISRDNAKNTVYLQMNSLKPEDTAVYYCAARWYWGWTRGDYWGQGTQVTVSS | high polyreactivity |
| QVQLVESGGGLVQAGGSLRLSCAASGSIFPRYAMGWYSQAPGKERELVATISYRGGTTYYADSVKGRFTISRDNEKNTVYLQMNSLKPEDSAVYYCNTLYYRGIYDPWGQGTQVTVSS | high polyreactivity |
| QVQLVESGGGLVQAGGSLRLSCAASGSTFEQYAMGGYRQAPGKEKELDAAISGSGTRTYYADSVKGRFTISRDNAKNTVYLQMNSLKAEDTAVYYCAARFSYPAILQAYYHWGQGTQVTVSS | high polyreactivity |
| QVQLVESGGGLVQAGGSLRLSCAASRLTFQQYAMGWYRQAPGKERELVAAITSDGASTNYADSVKGRFTISRDNAKNTVYLQMNSLKPEDTAVYYCAARRSSRQYRYDYWGQGTQVTVSS | high polyreactivity |
| NVQLVESGGGLVQAGGSLRLSCAASGGIFYRYAMGWYRQAPGKEWELVATISRRGGRTYYADSVKGRFTISRDNEKNTVYLQMNSLKPEDTAVYYCAADEWQSGHCLEDDYWGQGTQVTVSS | high polyreactivity |
| QVQLVESGGGLVQAGGSLRLSCAASGRIFRPYAMGWYRQAPGKERELVASITRGGSTDYADSVKGRFTISRDNAKNTVYLQMNSLKPEDTAVYYCNKVWRFGYYGSYYWGQGTQVTVSS | high polyreactivity |
| QVQLVESGGGLVQAGGSLRLSCAASGRIFTSYAMGWYRQAPGKERELVASITSGGRTDYADSVKGRFTISRDNAKNTVYVQMNSLKPEDTAVYYCNVGTRRALYYPYRPGRYDYWGQGTQVTVSS | low polyreactivity |
| QVQLVESGGGLVQAGGSLRLSCAASGSIFRYYAMGWYRPATGKERELVADITSSGGSTYYADSVKGRFTISRDNPKNTVYLQMNSLKREDTAVYYCASLYWFYVYPFTEYDYWGQGTQVTVSS | low polyreactivity |
| QVHLVESGGGLVQAGGSLRLSCAASGRIINYYDMGWYRQAPGKERELVAAISRSGGRTYYADSVKGRFTISRDNAKNTVYLQMNSLKPEDNAVYYCAASDYQRYQPTPQYTYYYWGQGTQVTVSS | high polyreactivity |
| QVQLVESGGGLVQAGGSLRLSCAASGSILAINAMGWYRQAPGKERELVAAINWSRGSTFYADSVKGRFTISRDNAKNTVYLQMNSLKPEDTAVYYCNVEWTDSERGDYYVDYDYWGQGTQVTVSS | low polyreactivity |
| QVQLVESGGVLVQAGGSLRLSCADSGSIFILYAMGWYRHAPGKESEFVAAITYRGGSTKYADSVKGRFTISRDNAKNTVYLQMNRLKPEDTAVYYCAAGGYWRSPCGSVSRYGYWGQGTQVTVSS | high polyreactivity |
| QVQLVESGGGLVQAGGSLRLSCAASGSILYLNARGWYRQAPGKERELVAGISRRGGRTTYADSVKGRFTISRDNAKNTVYLQMNSLKPEDTAVSYCAVSTAYGYGYWGQGTQVTVSS | high polyreactivity |
| QVQLVESGGGLVQAGGSLRLSCAASGRIFGYYTMGSYRQAPGKEMELVATINWSGGSTYYADSVKGRFTISRDNAKNTVYLQMNSLKPEDTAVYYCADRPALWGRYRGYDYWGQGTQVTVSS | high polyreactivity |
| QVQLVESGGGLVQAGGSLRLSCAASGSIFYGNAMGWYRQAPGKERELVAGISWSGGSTYYADSVKGRFTISRDNAKNSVFLQMNSLKPEETAVYYCAAVRWGSYTLSDDYWGQGTQLTVSS | low polyreactivity |
| QVQLVESGGGLVQAGGSLRLSCAASGLIFSRYAMGWYRQAPGKERELVAAISSSGGTTYYADSVKGRFTISRDNAKNTVYLQMNSLKPEDTAVYYCAAGVAWRFYSWGQGTQVTVSS | high polyreactivity |
| QVQLQESGGGLVQAGGSLRLSCAASCTISQEDWMGSYRQAPGKEREFVAAIGLGSNTNYADSLKGRFTISRDNAKNTVYLQMNSLKPEDTAVYYCAVSVWQYSDHVYRGQGTQVTVSS | low polyreactivity |
| QVQLVESGGGLVQAGGSLRLSCAASGIIFDYYAMGWYRQAPGKERELVASISWSGGGTYYADSVKGRFTISRDNAKNTVYLEMNSLKPEDTAVYYCAADGSTVNAPRWSDPYDYWGQGTQVTVSS | low polyreactivity |
| QDQLVESGGGLVQAGGSLRLTCAASGRICTYYAMGWYRKATGKERELVASISRSGGNTYYADSVKGRFTISRDNAKNTVYLQMNSLKPEDTAVYYCAAVYSRLDYWGQGTQVTVSS | high polyreactivity |
| QVHHVESGGGLVQAGGTLRLSCSASGSTFWANAMGWYRQQPGKEWEFVARITYSCGSTYYADSVKGRFTISRDNAKNTVYLQMNSLIREDTAVYYCAAELPGKLVYWGQGSQVTVSS | low polyreactivity |
